Earlier results as cited in patent US20250255929A1, “METHODS FOR REDUCING RISKS ASSOCIATED WITH HEART FAILURE AND FACTORS ASSOCIATED THEREWITH” (Stealth BioTherapeutics Inc., priority 2012, published 2025).
Square brackets hold non-standard residues; d marks the D form. Ends that are not written are not given here. Dmt = Cc1cc(O)cc(C)c1C[C@H](N)C(=O)O

System: several mammalian cell types
Conditions: energy-independent manner, Zhao et al., J. Pharmacol Exp Ther., 304:425-432, 2003; cited from earlier work

2′,6′-Dmt-D-Arg-Phe-Lys-NH2 ([Dmt][dR]FK-NH2)
penetration of the plasma membrane: readily penetrates the plasma membrane
